This note sets out measurements from article PMC7348807.

In data set [1] the target is T1, thrombin (UniProt P00734;P00734 328-363;364-622). Briefly: kinetic exclusion assay (KinExA), two-population competitive fit; hypothetical second FA population (16%); the other 84% fixed at Kd 298 pM; PBS with 0.02% sodium azide and 1 mg/mL BSA; incubation 2 h (50 pM, 1 nM FA) or 6.5 h (10 pM FA); thrombin 5 pM to 1 uM; pH and temperature not stated. In general terms: In KinExA the mixture passes briefly over coated beads that capture the unbound partner.

Data set [2] has as its target T1, thrombin. Briefly: kinetic exclusion assay (KinExA), n-curve analysis; 1:1 model; FA 10 pM, 50 pM, 1 nM; fitted FA activity ~47%; 1:1 fit deviates at high thrombin; PBS with 0.02% sodium azide and 1 mg/mL BSA; incubation 2 h (50 pM, 1 nM FA) or 6.5 h (10 pM FA); thrombin 5 pM to 1 uM; pH and temperature not stated.

As usually defined, the Kd is the constant that tells how readily two partners part at equilibrium. Lower therefore signals a tighter complex.

For the molecule AGTCCGTGGTAGGGCAGGTTGGGGTGACT (structured_DNA) [29-nt thrombin aptamer (Tasset et al.), fluorescent aptamer FA], the dissociation constant Kd with thrombin [1] turned out to be 500 nM; with thrombin [2] it was 0.298 nM.
